Test results from article PMC10696041.

Molecular target: C-propeptide of collagen III
Experiment: SPR; C-propeptide III immobilised by amine coupling on CM5; 10 mM HEPES pH 7.4, 0.15 M NaCl, 5 mM CaCl2, 0.05% P20, 25 °C

B1: procollagen C-proteinase enhancer-2 with N-terminal 6His-tag (natural protein)
chain: QSPERPVFTCGGILTGESGFIGSEGFPGVYPPNSKCTWKITVPEGKVVVLNFRFIDLESDNLCRYDFVDVYNGHANGQRIGRFCGTFRPGALVSSGNKMMVQMISDANTAGNGFMAMFSAAEPNERGDQYCGGLLDRPSGSFKTPNWPDRDYPAGVTCVWHIVAPKNQLIELKFEKFDVERDNYCRYDYVAVFNGGEVNDARRIGKYCGDSPPAPIVSERNELLIQFLSDLSLTADGFIGHYIFRPKKLPTTTEQPVTTTFPVTTGLKPTVALCQQKCRRTGTLEGNYCSSDFVLAGTVITTITRDGSLHATVSIINIYKEGNLAIQQAGKNMSARLTVVCKQCPLLRRGLNYIIMGQVGEDGRGKIMPNSFIMMFKTKNQKLLDALKNKQC
Kd: 45 nM
